Experimental findings from patent US20240327544A1 (BIONTECH, published 2024) are described below.

Several values for one entry are separate records, joined by “and”; a condition that tells them apart may be missing. Equal values may be shown once.

For assay [1], the target named is T1, C1q (complement protein C1q from human serum) (human, UniProt P02745 23-245; P02746 28-253; P02747 29-245).
T1 construct: Human serum (20%) was the source of C1q
Nature of the assay: flow cytometry, activated human CD8+ T cells, FITC anti-C1q.

Assay [2] concerns the target human PD-1, full-length, expressed on cells (human, UniProt Q15116 25-288). Nature of the assay: cell-based or functional assay.

Sequence of human PD-1, full-length, expressed on cells (Q15116 25-288 limits assumed): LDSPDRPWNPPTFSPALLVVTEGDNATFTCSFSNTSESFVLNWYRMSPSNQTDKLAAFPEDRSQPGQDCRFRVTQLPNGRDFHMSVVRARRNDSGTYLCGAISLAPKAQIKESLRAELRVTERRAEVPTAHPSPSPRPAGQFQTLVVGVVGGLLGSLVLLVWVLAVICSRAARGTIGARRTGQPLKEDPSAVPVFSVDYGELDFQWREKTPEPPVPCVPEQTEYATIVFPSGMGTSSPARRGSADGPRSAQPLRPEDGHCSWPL
T1 sequence (P02745 23-245 limits assumed, chain 1 of 3): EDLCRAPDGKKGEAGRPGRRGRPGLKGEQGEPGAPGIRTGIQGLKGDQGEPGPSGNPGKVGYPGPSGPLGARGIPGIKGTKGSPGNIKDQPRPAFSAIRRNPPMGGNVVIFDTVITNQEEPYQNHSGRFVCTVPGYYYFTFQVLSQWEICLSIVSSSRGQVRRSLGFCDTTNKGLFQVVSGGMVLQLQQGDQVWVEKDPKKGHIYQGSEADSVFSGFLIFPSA
T1 sequence (P02746 28-253 limits assumed, chain 2 of 3): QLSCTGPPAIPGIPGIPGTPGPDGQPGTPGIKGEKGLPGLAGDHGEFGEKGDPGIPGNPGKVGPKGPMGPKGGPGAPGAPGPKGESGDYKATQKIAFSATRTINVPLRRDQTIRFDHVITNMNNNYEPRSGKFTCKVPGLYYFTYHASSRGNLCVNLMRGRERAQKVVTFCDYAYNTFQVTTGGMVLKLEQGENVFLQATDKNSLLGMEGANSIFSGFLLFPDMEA
T1 sequence (P02747 29-245 limits assumed, chain 3 of 3): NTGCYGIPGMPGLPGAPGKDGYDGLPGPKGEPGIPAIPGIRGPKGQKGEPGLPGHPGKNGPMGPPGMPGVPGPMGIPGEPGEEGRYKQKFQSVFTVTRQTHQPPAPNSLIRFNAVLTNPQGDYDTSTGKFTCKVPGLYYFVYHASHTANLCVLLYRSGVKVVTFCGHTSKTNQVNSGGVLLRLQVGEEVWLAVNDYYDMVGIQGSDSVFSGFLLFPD

B1: IgG1-PD1 (antibody)
heavy: QVQLVESGGGLVQPGTSLRLSCSVSGFSLYSYNMGWVRQAPGKGLEYIGIISGGTIGHYASWAKGRFTISRDTSKTTLYLQMNSLTTEDTATYFCARAFYDDYDYNVWGPGTLVTVSSASTKGPSVFPLAPSSKSTSGGTAALGCLVKDYFPEPVTVSWNSGALTSGVHTFPAVLQSSGLYSLSSVVTVPSSSLGTQTYICNVNHKPSNTKVDKRVEPKSCDKTHTCPPCPAPEFERGPSVFLFPPKPKDTLMISRTPEVTCVVVDVSHEDPEVKFNWYVDGVEVHNAKTKPREEQYNSTYRVVSVLTVLHQDWLNGKEYKCKVSNKALPAPIEKTISKAKGQPREPQVYTLPPSREEMTKNQVSLTCLVKGFYPSDIAVEWESNGQPENNYKTTPPVLDSDGSFFLYSKLTVDKSRWQQGNVFSCSVMHEALHNHYTQKSLSLSPG
light: AIQLTQSPSSLSASVGGTVTITCQSSQSVYGNNQLSWYQQKPGQPPKLLIYQASKLETGVPSRFRGSGSGTQFTLTISSLQSEDFATYYCAGGYSSSSDTTFGGGTEVVVKRTVAAPSVFIFPPSDEQLKSGTASVVCLLNNFYPREAKVQWKVDNALQSGNSQESVTEQDSKDSTYSLSSTLTLSKADYEKHKVYACEVTHQGLSSPVTKSFNRGEC
notes: Humanized rabbit anti-PD-1 antibody, Fc-inert IgG1 kappa; also called MAB-19-0618 variable regions in a human IgG1m(f) L234F/L235E/G236R (FER) backbone
For B1, in assay [1], the binding result is recorded as “no binding (tested: antibody up to 30 µg/mL, 20% human serum)”. The “EC50 of PD-1/PD-L1 checkpoint blockade (luminescence, PD-1/PD-L1 blockade reporter assay)” value in assay [2] is 0.165 µg/mL and 1.12 nM.
